The values below come from PMC5588702 (Structure (London, England : 1993), 2014).

The target of the test is DNA polymerase β polymerase domain with the V303M mutation (UniProt P06766 88-335, V303M, [methyl-13C]methionine labelled). Put plainly: NMR.

B1: oxidized form of the XRCC1 N-terminal domain, XRCC1(1-155), containing the C12-C20 disulfide bond (domain or fragment, human, UniProt P18887 2-155, looked up)
chain: PEIRLRHVVSCSSQDSTHCAENLLKADTYRKWRAAKAGEKTISVVLQLEKEEQIHSVDIGNDGSAFVEVLVGSSAGGAGEQDYEVLLVTSSFMSPSESRSGSNPNRVRMFGPDKLVRAAAEKRWDRVKIVCSQPYSKDSPFGLSFVRFHSPPDK
modifications: Cys12-Cys20 disulfide bond; N-terminal carbimate (CO2) adduct on Pro2; U-[15N] labelled
B1: the “ratio KD(pol β•X1NTDred)/KD(pol β•X1NTDox)” value worked out at 25.2.
